± gives the standard error. Variants at the floor of the assay were thinned out.
B1: glmS ribozyme (parent)
chain: AUAAAAGCGCCAGAACUACAGAAAUGUAGUUGACGAGGAGGAGGUUUAUCGAAUUUUCGGCGGAUGCCUCCAAA

Legend:
Conditions in all cases: with glucosamine-6-phosphate
[1] = variants of: B1; experiment: self-cleavage kobs at 160 uM GlcN6P; higher = faster cleavage; RNA array
Outline: (§1)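 Glucosamine-6-phosphate in HEPES/KCl/Mg(OAc)2 buffer, at 40 μM to 10 mM, was flowed over barcoded ribozyme variants transcribed in situ by E. coli RNA polymerase on sequenced MiSeq chips. Tracking was through a hybridised Cy3 probe at 37 °C. kobs, kcat and KM came from exponential decay fits and weighted Michaelis–Menten fits of normalised per-tile medians.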

[2] = variants of: B1; experiment: self-cleavage kobs at 640 uM GlcN6P; higher = faster cleavage; RNA array
Outline: as §1

[3] = variants of: B1; experiment: self-cleavage kobs at 2500 uM GlcN6P; higher = faster cleavage; RNA array
Outline: as §1

[4] = variants of: B1; experiment: self-cleavage kobs at 10000 uM GlcN6P; higher = faster cleavage; RNA array
Outline: as §1

Variant | self-cleavage kobs at 160 uM GlcN6P [1] | self-cleavage kobs at 640 uM GlcN6P [2] | self-cleavage kobs at 2500 uM GlcN6P [3] | self-cleavage kobs at 10000 uM GlcN6P [4]
AUAAAAGCGCCAGAACUACAGAAAUGUAGUUGACGAGGAGGAGGUUUAUCGAAUUUUCGGCAUAUGUCUCCAAA | < 1e-05 s⁻¹ | < 1e-05 s⁻¹ | – | –
AUAAAAGAGCCAGAACUACAGAAAUGUAGUUGACGAGGAGGAGCUUUAUCGAAUUUUCGGCGGAUGCAUCGAAA | < 1e-05 s⁻¹ | – | – | –
AUAAAAGCGCCAGAACUACAUAAAUGUAGUUGACGAGGAGGAGGUUUAUCGAAUUUUCGGCGGAUGCCUCGAAA | 0.000226 ± 5.1e-05 s⁻¹ | 0.000218 ± 3.9e-05 s⁻¹ | 0.000294 ± 5.9e-05 s⁻¹ | –
AUAAACGCGGCAGAACUACAGAAAUGUAGUUGACGCGGAGGAGGUUUACCGAUUUUUCGGCGGUUGCCUCCAAA | < 1e-05 s⁻¹ | – | – | –
AUAAAAGCGCCCGAUCUACAGAAAUGUAGUUGACGAGGAGGAGGUUUAUCGAAUGUUCGGCGGAUGUCUCCAAA | 4.96e-05 ± 2.1e-05 s⁻¹ | 0.0001 ± 2.8e-05 s⁻¹ | 0.000447 ± 0.00013 s⁻¹ | –
AUAAAAGCGCCAGAACUACAGAAAUGUAGUUGACGAGGAGGAGGUUAAUCGAAUUUUCGGCGGAAGCCUCCAAA | 0.000347 ± 7.5e-05 s⁻¹ | 0.00132 ± 0.00027 s⁻¹ | 0.00331 ± 0.00064 s⁻¹ | –
AUAAAAGCGCCAGAACUACAGAAAUGUAGUUGACGAGAAGGAGGUUUAUCGAAUUUUCAGCGGAUGCCUCCAAA | < 1e-05 s⁻¹ | – | – | < 1e-05 s⁻¹
AUAAAAGCGCCAGAACUACAGAAAUGUAGUCGACCAGGACGAGGUUUAUCGAAUUUUCGGCGGAUGCCUCCAAA | < 1e-05 s⁻¹ | – | < 1e-05 s⁻¹ | < 1e-05 s⁻¹
AUAAAAGCGCCAGAACUACAGAAAUGUAGGUGACGUGGAGGAGGUUUAUCGAAUUUUCGGCGGAUGCCUCCAAA | < 1e-05 s⁻¹ | < 1e-05 s⁻¹ | – | –
AUAAAAGCGCCUGAACUACAGAAAUGUAGAUGACGAGGAGGAGGAUUAUCGAUUUUUCGGCCGAUGCCUCCAAA | < 1e-05 s⁻¹ | – | < 1e-05 s⁻¹ | –
AUAAAAGCGCCAGAACUACAGAAAUGUAGUUGACGAGGAGGAGGUUGAUUGAAUUUUCGGCGCAUGCCUCCAAA | < 1e-05 s⁻¹ | < 1e-05 s⁻¹ | – | –
AUAAAAGCGCCAGAACUACAGAAAUGUAGUUGACGAGGAGGAUGUUUAUCGAAUUUUCGGCUGAUGUCUCCAAA | < 1e-05 s⁻¹ | < 1e-05 s⁻¹ | – | –
AUAAAAGCGCCAGAACUACAGAAAUGUAGUUGACGAGGAGGCGGUUUAUCGAAUUUUCGGCGUAUGCCUCCAAA | < 1e-05 s⁻¹ | – | – | < 1e-05 s⁻¹
AUAAAAGCGCCAGGACUACAGAAAUGUAGUUGACGAGGAGGAGGUUUAUCUAAUUUUCGGCGGAUGCCUCCAAA | < 1e-05 s⁻¹ | – | – | –
AUAAAAGCGCGAGAACUACAGAAAUGUAGUUGACGACGAAGAGGAUUAUCGAAUUUUCGGCGGAUGCCUUCAAA | < 1e-05 s⁻¹ | – | – | –
AUAAAAGCGCCAGAACUAAAGAAAUGUAGUUGAGGAGGCGGAGGUUUAUCGAAUUUUCGGCGGAUGCCUCCAAA | < 1e-05 s⁻¹ | < 1e-05 s⁻¹ | < 1e-05 s⁻¹ | –

Variant | self-cleavage kobs at 160 uM GlcN6P [1] | self-cleavage kobs at 640 uM GlcN6P [2] | self-cleavage kobs at 2500 uM GlcN6P [3] | self-cleavage kobs at 10000 uM GlcN6P [4]
AUAAAAGCGUCAGAACUACAGAAAUGUAGUUGACGGGGAGGAGGUCUAUCGAAUUUUCGGCGGAUGCCUCCAAA | < 1e-05 s⁻¹ | – | < 1e-05 s⁻¹ | < 1e-05 s⁻¹
AUAAAAGCGCCAGAACUACAGAAAUGUAGUUGACGAGGAGGAGGUUUAUCGACGUUUCGGCGGAUGCCUCCAAA | 0.000308 ± 0.00011 s⁻¹ | 0.000352 ± 0.00012 s⁻¹ | 0.000803 ± 0.00021 s⁻¹ | –
AUAAAAGCGCUAGAACUACAGAAAUGUAGUCGACGAGGUGGAGGUUUAUCGCAUUUUCGGCGGGUGCCUCCAAA | < 1e-05 s⁻¹ | – | < 1e-05 s⁻¹ | –
AUAAAGGCGCCAGAACUACAGAAAUGUACUUGACGAGGAGGAGGUUUAUCGAAUUUUCGGCGGAUGCCUGCAAA | < 1e-05 s⁻¹ | – | < 1e-05 s⁻¹ | < 1e-05 s⁻¹
AUAAAAGCGCCAGAACUACAGAAAUGUAGUUGACGAGGAGGAUGUUUAUCGAAUUUUCGGCGGAUUUCUCCAAA | < 1e-05 s⁻¹ | – | – | –
AUAAAAGCGCCAGAACCACAGAAAUGUAGUUGACGAGGAGGAGGUUUAUGGAAUUUUCGGCGGAUGCCUCUAAA | 6.74e-05 ± 2.2e-05 s⁻¹ | 0.000319 ± 9.7e-05 s⁻¹ | 0.000253 ± 4.6e-05 s⁻¹ | –
AUAAAAGCGCCAGAACUACAGAAAUGUAGUUGACGAUGAGGAGGUUUAUUGAAUUUUAGCCGGCUGCCUCCAAA | < 1e-05 s⁻¹ | < 1e-05 s⁻¹ | < 1e-05 s⁻¹ | –
AUAAAAGCGCCAGAACUACAGAAAUGUAGAUGACGAGGAGGAGGUUUAUCGAAUUUUCGGCGAAUGCCUCCAAA | < 1e-05 s⁻¹ | < 1e-05 s⁻¹ | < 1e-05 s⁻¹ | < 1e-05 s⁻¹
AUAAAAGCUCCAGAACUAAAGAAAUGUAGUUGACGAGGAGGAGGUUUAUCGAAUUUUCGGCGGAUGCCUCCAAA | < 1e-05 s⁻¹ | – | – | –
AUAAAAGCGCGAGAACUACAGAAAUGUAGUUGACGAGGCUGAGGUUUAUCGAAUUUUCGGCGGAUGCCUCCAAA | < 1e-05 s⁻¹ | < 1e-05 s⁻¹ | < 1e-05 s⁻¹ | –
AUAAAAGCGCCAGACCUACAGAAAUGUAGUUGCCGAGGAGGAGGUUUAUCGAAUCUUCGGCGGAUGCCUCCAAA | < 1e-05 s⁻¹ | < 1e-05 s⁻¹ | < 1e-05 s⁻¹ | –
AUAAAAGCGCCAGAACUACAGAAAUGUAGUUGACGAGAAGGAGGUUUAUCCAAUUUUCGGCGGAUGCCUCCAAA | < 1e-05 s⁻¹ | – | – | –
AUAAAAGCGCUAGAACUACAGAAAUGUAGUUGACGAGGUGGAGGUUUAGCGAAUUUUCGGCGGAUGCCUCCAAA | < 1e-05 s⁻¹ | < 1e-05 s⁻¹ | < 1e-05 s⁻¹ | –
AUAAAAUCGCCCGAACUACAGAAAUGUAGUUGACGAGGAGAAGGUUUAUCGAAUUUUCGGCGGAUGCCUCCAAA | < 1e-05 s⁻¹ | – | < 1e-05 s⁻¹ | –
AUAAAAGCGCCAGAGCUACAGAAAUGUAGUUGACGAGGAGGAGGUUUAUCUAAUUUUCAGCGGAUGCCUCCAAA | < 1e-05 s⁻¹ | – | < 1e-05 s⁻¹ | < 1e-05 s⁻¹
AUAAAAGCGCCAGAACUACAGAAAUGUAGUUCACGAGGAGGAGGUUUAUCGAAUUUUCGGCGGAUGCCACCAAA | < 1e-05 s⁻¹ | 0.00639 ± 0.0029 s⁻¹ | – | 2.46e-05 ± 1.2e-05 s⁻¹
